Primed or numbered codes have the meaning given here. Where no end group is shown, it is not given here. [ ]: non-standard residue; d: D form. The star is where a group is joined. Biotin = O=C1N[C@H]2[C@H](CS[C@H]2CCCCC(=O)*)N1; Lys(Me3) = C[N+](C)(C)CCCC[C@H](N)C(=O)O; PEG4′ = not defined here
Tests used:
Assay in all cases: cell microarray on HEK293 cells
PAPPA = biological target: T1, PAPPA (human, UniProt Q13219 82-1627)
T1 construct: whole, on cells; Secreted targets were tethered to the plasma membrane
Description: (§1) Initially, two pools of compounds were tested. […] To perform this assay, HEK293 cells were plated on a dish and localized spots of cells were transiently over-expressed with a single cDNA encoding for GFP and one of the 6,416 targets. Included in this library were multiple clones for the Nectin family members, including plasma membrane, non-tethered secreted, and tethered secreted forms of Nectin-1, 2, 3, and 4. Secreted protein targets were tethered to the plasma membrane to aid in detection. The molecule pools were incubated on the fixed, over-expressing cell microarrays (n=2 per protein), and binding was visualized using Alexa Fluor 647 streptavidin fluorescence.

IGF2 = biological target: T2, IGF2 (human, UniProt P01344 25-91)
T2 construct: whole, on cells; Secreted targets were tethered to the plasma membrane
Description: as §1

TRPV5 = biological target: T3, TRPV5 (human, UniProt Q9NQA5 1-729)
T3 construct: whole, on cells
Description: as §1

GLP2R = biological target: T4, GLP2R (human, UniProt O95838 1-553)
T4 construct: whole, on cells
T4 sequence (looked up): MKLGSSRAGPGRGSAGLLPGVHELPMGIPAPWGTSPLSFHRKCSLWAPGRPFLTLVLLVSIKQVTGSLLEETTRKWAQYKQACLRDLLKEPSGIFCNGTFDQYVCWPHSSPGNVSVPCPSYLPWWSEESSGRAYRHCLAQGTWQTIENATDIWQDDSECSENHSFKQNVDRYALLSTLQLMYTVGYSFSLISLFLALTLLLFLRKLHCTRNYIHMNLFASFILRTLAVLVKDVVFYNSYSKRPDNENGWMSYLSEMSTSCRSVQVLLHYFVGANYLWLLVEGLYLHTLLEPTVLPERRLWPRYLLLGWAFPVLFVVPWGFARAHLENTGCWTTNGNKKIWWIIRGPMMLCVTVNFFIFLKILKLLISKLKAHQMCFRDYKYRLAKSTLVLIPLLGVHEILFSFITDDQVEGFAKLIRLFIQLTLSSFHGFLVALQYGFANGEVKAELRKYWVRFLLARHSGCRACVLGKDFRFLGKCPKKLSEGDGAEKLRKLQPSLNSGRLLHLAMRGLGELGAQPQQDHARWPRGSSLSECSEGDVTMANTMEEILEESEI
Description: as §1

MFSD2B = biological target: T5, MFSD2B (human, UniProt A6NFX1 1-504)
T5 construct: whole, on cells
T5 sequence (looked up): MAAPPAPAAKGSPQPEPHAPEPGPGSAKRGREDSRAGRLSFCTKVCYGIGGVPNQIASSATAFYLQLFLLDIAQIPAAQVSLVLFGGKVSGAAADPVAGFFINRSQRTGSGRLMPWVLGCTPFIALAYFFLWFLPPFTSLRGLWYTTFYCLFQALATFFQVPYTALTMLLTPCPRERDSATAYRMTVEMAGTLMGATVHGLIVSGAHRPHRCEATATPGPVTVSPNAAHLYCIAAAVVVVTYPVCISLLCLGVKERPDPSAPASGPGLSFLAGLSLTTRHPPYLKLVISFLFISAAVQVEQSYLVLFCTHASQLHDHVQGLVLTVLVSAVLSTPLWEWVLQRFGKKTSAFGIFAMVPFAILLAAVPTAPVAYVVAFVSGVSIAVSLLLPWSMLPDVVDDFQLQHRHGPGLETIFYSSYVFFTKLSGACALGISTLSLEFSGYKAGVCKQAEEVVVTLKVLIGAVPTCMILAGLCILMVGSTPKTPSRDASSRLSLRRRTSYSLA
Description: as §1

SPNS2 = biological target: T6, SPNS2 (human, UniProt Q8IVW8 1-549)
T6 construct: whole, on cells
T6 sequence (looked up): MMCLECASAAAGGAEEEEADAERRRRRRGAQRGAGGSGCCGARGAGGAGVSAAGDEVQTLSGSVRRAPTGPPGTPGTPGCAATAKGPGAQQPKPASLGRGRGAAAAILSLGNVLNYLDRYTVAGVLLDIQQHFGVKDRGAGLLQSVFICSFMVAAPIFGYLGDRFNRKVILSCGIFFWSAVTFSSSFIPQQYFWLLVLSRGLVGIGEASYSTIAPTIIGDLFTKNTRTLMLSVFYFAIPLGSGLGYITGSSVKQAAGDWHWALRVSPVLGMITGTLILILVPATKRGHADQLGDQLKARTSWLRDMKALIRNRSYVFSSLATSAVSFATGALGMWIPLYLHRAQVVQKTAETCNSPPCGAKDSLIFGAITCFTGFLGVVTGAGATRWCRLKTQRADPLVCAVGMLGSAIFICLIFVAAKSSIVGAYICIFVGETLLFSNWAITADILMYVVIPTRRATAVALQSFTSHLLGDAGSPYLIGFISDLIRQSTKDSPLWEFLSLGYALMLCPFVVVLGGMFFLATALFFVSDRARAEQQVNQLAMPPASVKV
Description: as §1

EDN2 = biological target: T7, EDN2 (human, UniProt P20800 49-69)
T7 construct: whole, on cells; Secreted targets were tethered to the plasma membrane
T7 chain (looked up): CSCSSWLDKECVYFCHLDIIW
Description: as §1

IGFBP5 = biological target: T8, IGFBP5 (human, UniProt P24593 21-272)
T8 construct: whole, on cells; Secreted targets were tethered to the plasma membrane
Description: as §1

TRPV4 = biological target: T9, TRPV4 (human, UniProt Q9HBA0 1-871)
T9 construct: whole, on cells
Description: as §1

CXCL12 = biological target: T10, CXCL12 (human, UniProt P48061 22-93)
T10 construct: whole, on cells; Secreted targets were tethered to the plasma membrane
Description: as §1

IGFBP3 = biological target: T11, IGFBP3 (human, UniProt P17936 28-291)
T11 construct: whole, on cells; Secreted targets were tethered to the plasma membrane
Description: as §1

PLPP3 = biological target: T12, PLPP3 (human, UniProt O14495 1-311)
T12 construct: whole, on cells
T12 sequence (looked up): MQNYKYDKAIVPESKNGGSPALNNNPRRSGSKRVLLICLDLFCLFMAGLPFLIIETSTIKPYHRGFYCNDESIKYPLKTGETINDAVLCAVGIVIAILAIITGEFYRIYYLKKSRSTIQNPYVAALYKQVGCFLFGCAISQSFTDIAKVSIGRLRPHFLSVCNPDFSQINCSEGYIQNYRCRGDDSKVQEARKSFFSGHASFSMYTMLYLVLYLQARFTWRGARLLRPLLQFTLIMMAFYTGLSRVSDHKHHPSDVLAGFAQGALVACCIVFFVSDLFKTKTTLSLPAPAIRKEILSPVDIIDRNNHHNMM
Description: as §1

Measured: binding result

T11 sequence (P17936 28-291): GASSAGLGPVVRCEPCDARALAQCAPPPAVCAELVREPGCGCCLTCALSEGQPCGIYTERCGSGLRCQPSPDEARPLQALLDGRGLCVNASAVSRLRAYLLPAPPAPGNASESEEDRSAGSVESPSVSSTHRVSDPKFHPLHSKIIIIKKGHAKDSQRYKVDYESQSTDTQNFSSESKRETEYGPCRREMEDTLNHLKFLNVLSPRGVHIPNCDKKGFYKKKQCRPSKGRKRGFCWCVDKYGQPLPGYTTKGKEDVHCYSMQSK
T10 sequence (P48061 22-93): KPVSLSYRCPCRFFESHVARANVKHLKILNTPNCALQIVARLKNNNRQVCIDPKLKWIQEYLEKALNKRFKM
T2 sequence (P01344 25-91): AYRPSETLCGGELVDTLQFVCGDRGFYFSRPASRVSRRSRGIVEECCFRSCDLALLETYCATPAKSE
T3 sequence (Q9NQA5 whole entry): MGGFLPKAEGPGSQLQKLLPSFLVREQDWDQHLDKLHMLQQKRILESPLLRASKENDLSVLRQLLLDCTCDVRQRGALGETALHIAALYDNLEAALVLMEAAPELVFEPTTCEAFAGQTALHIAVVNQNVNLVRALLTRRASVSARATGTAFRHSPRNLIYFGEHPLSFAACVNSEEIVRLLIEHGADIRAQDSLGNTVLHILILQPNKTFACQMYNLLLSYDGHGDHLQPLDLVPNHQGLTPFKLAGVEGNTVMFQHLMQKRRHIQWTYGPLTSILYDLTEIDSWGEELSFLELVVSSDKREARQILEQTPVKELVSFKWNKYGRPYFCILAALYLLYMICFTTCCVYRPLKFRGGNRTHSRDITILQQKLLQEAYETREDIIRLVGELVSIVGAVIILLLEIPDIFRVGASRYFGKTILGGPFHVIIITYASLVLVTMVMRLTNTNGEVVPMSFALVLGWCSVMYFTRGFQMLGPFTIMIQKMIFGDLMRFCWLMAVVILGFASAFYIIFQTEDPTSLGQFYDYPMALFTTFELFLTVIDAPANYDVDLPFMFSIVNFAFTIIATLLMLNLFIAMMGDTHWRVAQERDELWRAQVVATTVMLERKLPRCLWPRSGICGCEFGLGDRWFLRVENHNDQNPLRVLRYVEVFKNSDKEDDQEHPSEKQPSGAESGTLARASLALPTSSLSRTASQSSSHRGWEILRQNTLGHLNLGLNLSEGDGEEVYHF
T9 sequence (Q9HBA0 whole entry): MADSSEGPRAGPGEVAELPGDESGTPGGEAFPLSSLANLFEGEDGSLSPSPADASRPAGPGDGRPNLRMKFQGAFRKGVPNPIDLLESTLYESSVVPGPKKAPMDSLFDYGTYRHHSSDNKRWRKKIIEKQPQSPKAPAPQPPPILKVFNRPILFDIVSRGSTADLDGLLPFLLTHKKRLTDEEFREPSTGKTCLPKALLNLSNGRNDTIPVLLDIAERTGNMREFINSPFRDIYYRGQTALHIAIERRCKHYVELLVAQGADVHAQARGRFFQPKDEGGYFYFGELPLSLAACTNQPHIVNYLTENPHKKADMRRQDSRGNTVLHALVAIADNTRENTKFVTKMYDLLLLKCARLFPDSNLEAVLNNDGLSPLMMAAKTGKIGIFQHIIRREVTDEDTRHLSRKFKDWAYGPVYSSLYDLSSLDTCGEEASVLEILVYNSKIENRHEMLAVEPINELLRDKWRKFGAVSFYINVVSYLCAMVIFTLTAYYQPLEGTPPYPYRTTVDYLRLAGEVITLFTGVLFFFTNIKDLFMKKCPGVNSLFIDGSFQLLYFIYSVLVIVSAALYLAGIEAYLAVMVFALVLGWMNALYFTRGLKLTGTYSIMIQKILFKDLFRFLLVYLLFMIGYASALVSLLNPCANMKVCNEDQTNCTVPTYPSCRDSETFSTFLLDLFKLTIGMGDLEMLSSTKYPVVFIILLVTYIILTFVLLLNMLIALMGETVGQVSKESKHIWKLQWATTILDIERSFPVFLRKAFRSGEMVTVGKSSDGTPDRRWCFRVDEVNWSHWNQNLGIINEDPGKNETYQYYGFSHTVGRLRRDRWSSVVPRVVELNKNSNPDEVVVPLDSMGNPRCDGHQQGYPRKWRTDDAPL
T1 sequence (Q13219 82-1627): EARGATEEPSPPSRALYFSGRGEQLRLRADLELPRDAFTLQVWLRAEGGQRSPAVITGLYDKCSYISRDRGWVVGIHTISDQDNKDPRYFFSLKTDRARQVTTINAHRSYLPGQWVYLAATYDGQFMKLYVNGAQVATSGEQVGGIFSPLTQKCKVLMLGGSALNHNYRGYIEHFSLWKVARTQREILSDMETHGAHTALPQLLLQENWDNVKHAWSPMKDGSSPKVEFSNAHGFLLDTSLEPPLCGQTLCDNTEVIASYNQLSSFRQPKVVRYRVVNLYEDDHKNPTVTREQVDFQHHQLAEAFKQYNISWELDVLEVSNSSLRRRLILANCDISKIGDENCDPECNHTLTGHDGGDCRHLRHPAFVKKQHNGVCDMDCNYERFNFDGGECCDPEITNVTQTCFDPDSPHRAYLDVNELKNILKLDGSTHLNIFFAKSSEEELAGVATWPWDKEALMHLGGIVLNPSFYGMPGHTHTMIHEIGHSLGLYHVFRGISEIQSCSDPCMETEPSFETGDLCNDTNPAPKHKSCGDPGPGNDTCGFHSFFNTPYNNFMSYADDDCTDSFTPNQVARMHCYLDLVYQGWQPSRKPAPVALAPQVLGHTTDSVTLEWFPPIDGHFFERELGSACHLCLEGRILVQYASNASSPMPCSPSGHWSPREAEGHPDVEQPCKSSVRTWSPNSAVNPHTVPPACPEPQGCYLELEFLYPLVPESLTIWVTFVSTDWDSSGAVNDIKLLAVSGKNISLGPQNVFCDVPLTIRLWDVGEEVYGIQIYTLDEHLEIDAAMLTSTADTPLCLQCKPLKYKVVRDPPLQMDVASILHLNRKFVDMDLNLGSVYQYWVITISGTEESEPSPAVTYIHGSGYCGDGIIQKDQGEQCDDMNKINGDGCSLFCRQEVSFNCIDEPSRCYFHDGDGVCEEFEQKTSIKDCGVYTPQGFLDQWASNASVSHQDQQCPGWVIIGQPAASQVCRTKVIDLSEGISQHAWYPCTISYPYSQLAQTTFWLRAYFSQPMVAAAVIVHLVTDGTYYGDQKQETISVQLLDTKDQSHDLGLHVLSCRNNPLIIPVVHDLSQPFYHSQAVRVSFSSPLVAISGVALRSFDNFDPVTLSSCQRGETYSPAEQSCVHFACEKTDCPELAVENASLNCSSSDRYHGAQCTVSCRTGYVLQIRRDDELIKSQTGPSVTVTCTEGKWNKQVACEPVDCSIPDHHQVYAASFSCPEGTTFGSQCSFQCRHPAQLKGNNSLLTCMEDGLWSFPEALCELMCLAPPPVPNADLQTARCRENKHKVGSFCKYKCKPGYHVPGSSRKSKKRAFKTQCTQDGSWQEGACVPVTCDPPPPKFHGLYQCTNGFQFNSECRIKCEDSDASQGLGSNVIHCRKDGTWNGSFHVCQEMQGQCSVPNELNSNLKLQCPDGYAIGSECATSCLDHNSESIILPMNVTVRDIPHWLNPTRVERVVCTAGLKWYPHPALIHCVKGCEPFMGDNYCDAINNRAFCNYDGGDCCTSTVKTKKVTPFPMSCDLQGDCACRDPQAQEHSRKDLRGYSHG
T8 sequence (P24593 21-272): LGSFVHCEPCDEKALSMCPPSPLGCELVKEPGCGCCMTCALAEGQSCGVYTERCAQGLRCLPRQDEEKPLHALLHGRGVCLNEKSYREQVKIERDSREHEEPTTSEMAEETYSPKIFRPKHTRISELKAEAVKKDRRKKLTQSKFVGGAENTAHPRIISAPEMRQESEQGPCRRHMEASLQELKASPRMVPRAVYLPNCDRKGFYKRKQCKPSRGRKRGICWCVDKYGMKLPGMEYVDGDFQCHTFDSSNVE

{Biotin-PEG4′}-CEYDEEFFTALARLRGGDICQYIQA[Lys(Me3)]FQYLPALCIEEILDNLGCS (designed binder, cysteine pairing not given here) [C253]
no binding (tested: 2 µg/mL): all assays above

{Biotin-PEG4′}-CDYDEQFFTALKRLRGADICEYIQASFQYLPGECIEEILDNLGCS (designed binder, cysteine pairing not given here) [C208]
no binding (tested: 2 µg/mL): all assays above

{Biotin-PEG4′}-CDYDEQFFTALKRLRGGDICEYIQASFQYLPGLCIEEILDNLGCS (designed binder, cysteine pairing not given here) [C190]
no binding (tested: 2 µg/mL): all assays above

{Biotin-PEG4′}-CDYDEQFFTALARLRGADICEYIQASFQYLPGECIEEILDNLGCS (designed binder, cysteine pairing not given here) [C247]
no binding (tested: 2 µg/mL): all assays above

{Biotin-PEG4′}-CEYDEQFFTALKRLRGDDICDYIQASFQYLPGLCIEEILDNLGCS (designed binder, cysteine pairing not given here) [C197]
no binding (tested: 2 µg/mL): all assays above
